Experimental data taken from US20110105412A1.

Biological target: gp120 YU2 (HIV, type R5 isolate YU2) (UniProt P35961)
Experiment: SPR, indirect; rising concentrations of mCD4 mixed with unlinked HS12Lb, co-incubated with 40 nM gp120 YU2; readout: gp120 bound to the mAb 17b surface [bottom panel]

miniCD4 peptide (mCD4)
EC50 (read off the curve): 6 nM
